Values quoted from earlier work as cited in patent US8623366B2, “Methods for treating visceral pain by administering antagonist antibodies directed against calcitonin gene-related peptide” (Labrys Biologics, Inc., priority 2009, dated 2014).
Residue numbers refer to the chain shown, from its start. In names and notes the source's numbering stands.

Columns and labels:
[1] = target: T1, α-rat CGRP (Rattus norvegicus, UniProt P01256); conditions: Table 6 reproduced from WO2007/054809; cited from earlier work
T1 sequence (P01256 83-119 limits assumed): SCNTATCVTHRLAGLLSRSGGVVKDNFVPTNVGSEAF

[2] = target: T2, human α-CGRP (Homo sapiens, UniProt P06881); conditions: Table 6 reproduced from WO2007/054809; cited from earlier work
T2 sequence (P06881 83-119 limits assumed): T1 sequence (P01256 83-119 limits assumed) with S1A, N3D, D25N, E35K

## M2: G1 variant: HC-FW3 L99A A100R [Clone M2]
[1]
  Kd: 58 nM
[2]
  Kd: 3 nM

## M8: G1 variant: HC-FW3 L99N A100G [Clone M8]
[1]
  Kd: 41.4 nM
[2]
  Kd: 0.58 nM

## M10: G1 variant: HC-FW3 L99S A100S [Clone M10]
[1]
  Kd: 83.9 nM
[2]
  Kd: 1.08 nM

## M15: G1 variant: HC-FW3 L99T A100P [Clone M15]
[1]
  Kd: 63.9 nM
[2]
  Kd: 0.1 nM

## M18: G1 variant: HC-FW3 L99V A100G [Clone M18]
[1]
  Kd: 67.8 nM
[2]
  Kd: 0.44 nM

B1: M46: G1 variant: L1 R28N; L2 G50A L56T; H2 E54K A57N S58E H61F; HC-FW3 L99T A100V (antibody, chains of the INN, looked up, variant L:R28N L:G50A L:L56T H:E54K H:A57N H:S58E H:H61F H:L99T H:A100V, V domains shown)
VH: EVQLVESGGGLVQPGGSLRLSCAASGFTFSNYWISWVRQAPGKGLEWVAEIRSKSDNEATFYAEAVKGRFTISRDNAKNSLYLQMNSLRAEDTAVYYCTVYFDYGLAIQNYWGQGTLVTVSS
VL: EIVLTQSPATLSLSPGERATLSCKASKNVTTYVSWYQQKPGQAPRLLIYAASNRYTGIPARFSGSGSGTDFTLTISSLEPEDFAVYYCSQSYNYPYTFGQGTKLEIK
[1]
  Kd: 163 nM
[2]
  Kd: 3.37 nM

B2: M49: G1 variant: L1 R28N; L2 G50A L56T; H2 E54K A57N S58Y H61F; HC-FW3 L99T A100V (antibody, chains of the INN, looked up, variant L:R28N L:G50A L:L56T H:E54K H:A57N H:S58Y H:H61F H:L99T H:A100V, V domains shown)
VH: B1 VH with E58Y
VL: B1 VL
[1]
  Kd: 822 nM
[2]
  Kd: 3.72 nM

B3: M23: G1 variant: L1 R28G; HC-FW3 L99T A100V (antibody, chains of the INN, looked up, variant L:R28G H:L99T H:A100V, V domains shown)
VH: B1 VH with K54E, N57A, E58S, F61H
VL: B1 VL with N28G, A50G, T56L
[1]
  Kd: 44.4 nM
[2]
  Kd: 0.81 nM

B4: M73: G1 variant: L1 R28N T30G; L2 L56S; H2 E54K A57N S58Y E64D; HC-FW3 L99T A100V (antibody, chains of the INN, looked up, variant L:R28N L:T30G L:L56S H:E54K H:A57N H:S58Y H:E64D H:L99T H:A100V, V domains shown)
VH: B1 VH with E58Y, F61H, E64D
VL: B1 VL with T30G, A50G, T56S
[1]
  Kd: 167 nM
[2]
  Kd: 1.59 nM

B5: M67: G1 variant: L1 R28N T30G; L2 L56I; H2 E54K A57F; HC-FW3 L99T A100V (antibody, chains of the INN, looked up, variant L:R28N L:T30G L:L56I H:E54K H:A57F H:L99T H:A100V, V domains shown)
VH: B1 VH with N57F, E58S, F61H
VL: B1 VL with T30G, A50G, T56I
[1]
  Kd: 95 nM
[2]
  Kd: 5.13 nM

B6: M24: G1 variant: L1 R28L; HC-FW3 L99T A100V (antibody, chains of the INN, looked up, variant L:R28L H:L99T H:A100V, V domains shown)
VH: B1 VH with K54E, N57A, E58S, F61H
VL: B1 VL with N28L, A50G, T56L
[1]
  Kd: 57.8 nM
[2]
  Kd: 0.93 nM

B7: M69: G1 variant: L1 R28N T30G; L2 L56I; H2 E54K A57N S58E; HC-FW3 L99T A100V (antibody, chains of the INN, looked up, variant L:R28N L:T30G L:L56I H:E54K H:A57N H:S58E H:L99T H:A100V, V domains shown)
VH: B1 VH with F61H
VL: B1 VL with T30G, A50G, T56I
[1]
  Kd: 101 nM
[2]
  Kd: 4.58 nM

B8: M83: G1 variant: L1 R28N T30V; L2 A51H L56T; H2 E54K A57N S58M H61F; HC-FW3 L99T A100V (antibody, chains of the INN, looked up, variant L:R28N L:T30V L:A51H L:L56T H:E54K H:A57N H:S58M H:H61F H:L99T H:A100V, V domains shown)
VH: B1 VH with E58M
VL: B1 VL with T30V, A50G, A51H
[2]
  Kd: 5.83 nM

B9: M27: G1 variant: L1 R28N T30A; HC-FW3 L99T A100V (antibody, chains of the INN, looked up, variant L:R28N L:T30A H:L99T H:A100V, V domains shown)
VH: B1 VH with K54E, N57A, E58S, F61H
VL: B1 VL with T30A, A50G, T56L
[1]
  Kd: 189 nM
[2]
  Kd: 2.23 nM

B10: M84: G1 variant: L1 R28N T30V; L2 A51H L56T; H2 E54N A57N; HC-FW3 L99T A100V (antibody, chains of the INN, looked up, variant L:R28N L:T30V L:A51H L:L56T H:E54N H:A57N H:L99T H:A100V, V domains shown)
VH: B1 VH with K54N, E58S, F61H
VL: B1 VL with T30V, A50G, A51H
[1]
  Kd: 978 nM
[2]
  Kd: 6.75 nM
